Source: publication PMC9160799, “PET Imaging of Acidic Tumor Environment With ^89Zr-labeled pHLIP Probes” (Frontiers in Oncology, 2022)
“And” between values parts separate entries of the source, which are not always exact repeats. Identical values can stand only once. “Also recorded” adds a separate entry of the source. Square brackets hold non-standard residues; d marks the D form. Peptide text beside a SMILES is read from it. * marks the point of attachment. X1 = CC(=O)N(O)CCCCCNC(=O)CCC(=O)N(O)CCCCCNC(=O)CCC(=O)N(O)CCCCCNC(=O)CCC(=O)N(O)CCCCCNC(=S)Nc1ccc(NC(=S)*)cc1

How the values were obtained:
RM-1 tumor allografts = test: Post-mortem biodistribution, RM-1 tumor model; format: in vivo, male athymic nude mice; conditions: mouse, in vivo, iv, 1.2 nmol, 48 h
Method: (§1) The media were provided by the MSK Media Preparation Core. […] Another aliquot was diluted with the medium so that 50 µL contained 1×10^6 cells.
(§2) The imaging and biodistribution studies were performed with male (RM-1 model) and female (4T1 model) athymic nude mice and the kidney-blocking experiments were performed with female SCID mice received from Charles River Laboratories (Stone Ridge, NY). After arrival, the mice were kept in the MSK vivarium for one week before any experimental handling was performed. The animals were allowed free access to water and food, and all animal care and experimental procedures were approved by the Institutional Animal Care and Use Committee (IACUC). For the subcutaneous allografts, a 1-to-1 ratio of Corning Matrigel Matrix and the cell solution was prepared and stored on ice for the injections. Each mouse received a subcutaneous injection of 100 µL (50 µL cell solution, viability > 90%, + 50 µL Matrigel) into the flank on the level of the right shoulder. The injections were performed under anesthesia (2% isoflurane, Baxter Healthcare, Deerfield, IL, USA).
(§3) The mice were intravenously injected (tail vein) with the radiolabeled pHLIP conjugates (1.2 nmol, 7.4 MBq/200 µCi, 100 µL, in sterile filtered PBS). The activity of the syringe prior to injection and after injection was used to determine the percent of injectate administered.
(§4) For the biodistribution studies the tumor-bearing mice were randomized before the injections. Only mice with suitable tumors (150–300 mm^3) were utilized. An exception was made for the 120-hour timepoint, for which only mice with smaller tumors (150 mm^3) were selected. The mice were grouped in cohorts of four. At the respective timepoint, the mice were euthanized (by CO2 asphyxiation, followed by cervical dislocation) and their blood was collected by cardiac puncture as a terminal procedure, followed by quick removal of the tumors. After this, the other organs/samples were collected. […] The exact activities of all samples of one mouse were determined by an Capintec® CRC-55tR dose calibrator. These decay-corrected measurements were used to determine a calibration factor and calibrate all counts to the corresponding activities. Activity concentrations were calculated as percentage injected dose per tissue weight (%ID/g wet tissue). All data was processed and visualized using Origin 8.5.

[1] = Post-mortem biodistribution, RM-1 tumor model; format: in vivo, male athymic nude mice; conditions: male, athymic nude, mouse, in vivo, iv, 1.2 nmol, total radioactivity
Method: as §1, §2, §3, §4

[2] = test system: kidney uptake of [89Zr]Zr-DFOsqa-Lys-Var3; test: Kidney-blocking study (PET imaging); format: in vivo, healthy female SCID mice; conditions: drug IV 30 min before 7.4 MBq [89Zr]Zr-DFOsqa-Lys-Var3 (1.2 nmol); two doses per drug, n=2 each; PET 24 h p.i. vs control mice
Method: as §2, with “USA). Palpable tumors of similar size (100–300 mm^3) developed 5–8 days after grafting.” for “USA).”
PET images were obtained at the respective timepoints with the mice under anesthesia (2% isoflurane) on a microPET Focus 120 (Concorde Microsystems) or an Inveon PET-CT (Siemens) rodent scanner. All images were analyzed using the Medical Imaging Data Examiner Amide (version 0.9.0) or the Inveon reconstruction software suite. The counting rates in the reconstructed images were converted to percent of injected dose per weight (%ID/g) by applying a system-specific calibration factor. At the final timepoint, the remaining mice were euthanized (by CO2 asphyxiation, followed by cervical dislocation) and their tumors were resected for histological analysis.
Additional experiments were performed to investigate the influence of various kidney-uptake blockers and diuretics. Healthy female SCID mice received a “blocking agent” 30 minutes prior to the injection of [^89Zr]Zr-DFOsqa-Lys-Var3 (7.4 MBq/200 µCi, 1.2 nmol). […] The experimental set-up can be found in Table S6 .
Table S6. Summary of the kidney-blocking study. Healthy female SCID mice (2 mice per experiment/ dosage + 2 control mice without treatment, total of 22 mice) received a blocking agent intravenously 30 minutes prior to the injection of 7.4 MBq/200 µCi [89Zr]Zr-DFOsqa-Lys-Var3 (1.2 nmol pHLIP).
The drug dose was calculated as weight of drug (mg) per weight of mouse (kg). A potential kidney […]
calibrated images to the control mice (24 hours post injection). No drug led to a significant reduction […]
drug (IV 30 min before dose [mg/kg] effect on kidney mechanism of action [89Zr]Zr-pHLIP) (n=2) uptake […]
and water from the body; acts as a diuretic […]
organic anion transporter; blocks the uptake of organic anions […]
tubule via inhibition of the Na/Cl symporter; acts as a diuretic […]
increased – serum levels decreased

[3] = Tryptophan fluorescence spectra of pHLIP agents in states I, II, III; format: physicochemical; conditions: for λmax of tryptophan fluorescence, state I: in solution; for λmax of tryptophan fluorescence, state I / λmax of tryptophan fluorescence, state II: pH 8, 25.0°C; for λmax of tryptophan fluorescence, state III / λmax of tryptophan fluorescence, state II: with POPC liposomes; for λmax of tryptophan fluorescence, state III: pH 4, 25.0°C
Method: (§5) The interaction of the pHLIP agents with liposomes was investigated by recording the tryptophan fluorescence and circular dichroism (CD) spectra by using a PC1 spectrofluorometer (ISS, Inc) and an MOS-450 spectrometer (Biologic, Inc), respectively, with temperature control set to 25.0°C. Liposomes, consisting of large unilamellar vesicles, were prepared by extrusion. POPC (1-palmitoyl-2-oleoyl-sn-glycero-3-phosphocholine) (Avanti Polar Lipids, Inc.) in chloroform was desolvated on a rotary evaporator and dried under vacuum for several hours. The phospholipid film was rehydrated in 10 mM phosphate buffer, pH 8.0, vortexed, and passed 21 times through the extruder (50 nm membrane).
(§6) Using an excitation wavelength of 295 nm, tryptophan fluorescence spectra were recorded from 310–400 nm. CD spectra were recorded from 190–260 nm with 1-nm steps. The concentration of the peptide and the POPC liposomes varied in different experiments: 5–15 μM of pHLIP agents and 1 mM of POPC liposomes.
The pH-dependent insertion of the peptides into the lipid bilayer of the POPC liposomes was studied by monitoring either the changes in tryptophan fluorescence spectra or changes in the molar ellipticity at 222 nm as a function of the pH value. After the addition of aliquots of HCl, the pH values of the solutions containing peptide and POPC liposomes were measured using an Orion PerHecT ROSS Combination pH Micro Electrode and an Orion Dual Star pH and ISE Benchtop Meter. Fluorescence spectra were analyzed using the Protein Fluorescence and Structural Tool Kit (PFAST) ([41]) to determine the positions of spectral maxima (λ max ). The λ max and millidegree data were normalized to 0–1 and were plotted as a function of pH. The pH-dependence was fit with the Henderson-Hasselbach equation to determine the cooperativity (n) and the mid-point (pK) of transition: […]

[4] = pH-dependent insertion into lipid bilayer of POPC liposomes (Trp fluorescence and CD); format: physicochemical; conditions: with Zr, pH drop 8 to 3, Henderson-Hasselbalch fit
Method: as §5, §6
The pH-dependent insertion of the peptides into the lipid bilayer of the POPC liposomes was studied by monitoring either the changes in tryptophan fluorescence spectra or changes in the molar ellipticity at 222 nm as a function of the pH value. After the addition of aliquots of HCl, the pH values of the solutions containing peptide and POPC liposomes were measured using an Orion PerHecT ROSS Combination pH Micro Electrode and an Orion Dual Star pH and ISE Benchtop Meter. Fluorescence spectra were analyzed using the Protein Fluorescence and Structural Tool Kit (PFAST) ([41]) to determine the positions of spectral maxima (λ max ). The λ max and millidegree data were normalized to 0–1 and were plotted as a function of pH. The pH-dependence was fit with the Henderson-Hasselbach equation to determine the cooperativity (n) and the mid-point (pK) of transition:
Normalized pH dependence=1/1+10^n(pH−pK)

[5] = change of Trp fluorescence maximum

CC(=O)N[C@H](C)C(=O)N[C@H](CCCCNC(=S)Nc1ccc(NC(=S)NCCCCCN(O)C(=O)CCC(=O)NCCCCCN(O)C(=O)CCC(=O)NCCCCCN(O)C(C)=O)cc1)C(=O)N[C@H](CC(=O)O)C(=O)N[C@H](CC(=O)O)C(=O)N[C@H](CCC(N)=O)C(=O)N[C@H](CC(N)=O)C(=O)N1CCC[C@@H]1C(=O)N[C@H](Cc1c[nH]c2ccccc12)C(=O)N[C@H](CCCNC(=N)N)C(=O)N[C@H](C)C(=O)N[C@H](Cc1ccc(O)cc1)C(=O)N[C@H](CC(C)C)C(=O)N[C@H](CC(=O)O)C(=O)N[C@H](CC(C)C)C(=O)N[C@H](CC(C)C)C(=O)N[C@H](Cc1ccccc1)C(=O)N1CCC[C@@H]1C(=O)N[C@@H](C(=O)N[C@H](CC(=O)O)C(=O)N[C@@H](C(=O)N[C@H](CC(C)C)C(=O)N[C@H](CC(C)C)C(=O)N[C@H](CC(C)C)C(=O)N[C@H](CC(=O)O)C(=O)N[C@H](CC(C)C)C(=O)N[C@H](CC(C)C)C(=O)N[C@H](Cc1c[nH]c2ccccc12)C(=O)N[C@H](C)C(=O)O)[C@H](C)O)[C@H](C)O (89Zr complex, metal not drawn) [DFO-Lys-Var3]
Tumor uptake (RM-1 tumor allografts): 6.9 ± 1.9 %ID/g
tissue uptake at 48 h ([1]; Blood uptake): 0.5 ± 0.1 %ID/g
tissue uptake at 48 h ([1]; Brain uptake): 0.06 ± 0.01 %ID/g
tissue uptake at 48 h ([1]; Heart uptake): 1.3 ± 0.03 %ID/g
tissue uptake at 48 h ([1]; Kidneys uptake): 27.9 ± 3.6 %ID/g
tissue uptake at 48 h ([1]; Liver uptake): 8.7 ± 0.8 %ID/g
tissue uptake at 48 h ([1]; Lungs uptake): 2 ± 0.6 %ID/g
tissue uptake at 48 h ([1]; Muscle uptake): 0.5 ± 0.1 %ID/g
tissue uptake at 48 h ([1]; Pancreas uptake): 1 ± 0.2 %ID/g
tissue uptake at 48 h ([1]; Skin uptake): 1.7 ± 0.3 %ID/g
tissue uptake at 48 h ([1]; Spleen uptake): 7.2 ± 0.7 %ID/g
tissue uptake at 48 h ([1]; Tibia uptake): 1.4 ± 0.2 %ID/g

CCCN(CCC)S(=O)(=O)c1ccc(C(=O)O)cc1 [probenecid]
effect on kidney uptake [2]: not significant; also recorded: none of these drugs led to a significant reduction of kidney uptake

CC(=O)N[C@H](C)C(=O)N[C@H](CCCCNC(=S)Nc1ccc(NC(=S)NCCCCCN(O)C(=O)CCC(=O)NCCCCCN(O)C(=O)CCC(=O)NCCCCCN(O)C(=O)CCC(=O)NCCCCCN(O)C(C)=O)cc1)C(=O)N[C@H](CC(=O)O)C(=O)N[C@H](CC(=O)O)C(=O)N[C@H](CCC(N)=O)C(=O)N[C@H](CC(N)=O)C(=O)N1CCC[C@@H]1C(=O)N[C@H](Cc1c[nH]c2ccccc12)C(=O)N[C@H](CCCNC(=N)N)C(=O)N[C@H](C)C(=O)N[C@H](Cc1ccc(O)cc1)C(=O)N[C@H](CC(C)C)C(=O)N[C@H](CC(=O)O)C(=O)N[C@H](CC(C)C)C(=O)N[C@H](CC(C)C)C(=O)N[C@H](Cc1ccccc1)C(=O)N1CCC[C@@H]1C(=O)N[C@@H](C(=O)N[C@H](CC(=O)O)C(=O)N[C@@H](C(=O)N[C@H](CC(C)C)C(=O)N[C@H](CC(C)C)C(=O)N[C@H](CC(C)C)C(=O)N[C@H](CC(=O)O)C(=O)N[C@H](CC(C)C)C(=O)N[C@H](CC(C)C)C(=O)N[C@H](Cc1c[nH]c2ccccc12)C(=O)N[C@H](C)C(=O)O)[C@H](C)O)[C@H](C)O (89Zr complex, metal not drawn) [DFO*-Lys-Var3] (Ac-[dA][dK](X1)[dD][dD][dQ][dN][dP][dW][dR][dA][dY][dL][dD][dL][dL][dF][dP][dT][dD][dT][dL][dL][dL][dD][dL][dL][dW][dA]-OH; C-terminus assumed)
λmax of tryptophan fluorescence, state I ([3]; with Zr, excitation 295 nm): 352.0 nm
λmax of tryptophan fluorescence, state III ([3]; with Zr): 341.4 nm
λmax of tryptophan fluorescence, state II ([3]; with Zr): 348.2 nm
λmax of tryptophan fluorescence, state I ([3]; without Zr): 351.9 nm
λmax of tryptophan fluorescence, state III ([3]; without Zr): 341.4 nm
λmax of tryptophan fluorescence, state II ([3]; without Zr): 349.3 nm
cooperativity (n), Fluor. [4, 5]: 0.79 and 0.8
midpoint of transition (pK), Fluor. [4, 5]: 5.87
cooperativity (n), CD ([4]; ellipticity at 222 nm (coil-helix transition)): 1.46
midpoint of transition (pK), CD ([4]; ellipticity at 222 nm): 5.47

NS(=O)(=O)c1cc(C2(O)NC(=O)c3ccccc32)ccc1Cl (stereo not drawn) [chlorthalidone]
effect on kidney uptake [2]: not significant; also recorded: none of these drugs led to a significant reduction of kidney uptake
